This is an account of results in US20190248902A1 (published 2019).

B1: 197G3 (antibody, V domains shown)
VH: QVQLVESGGGVVQPGRSLRLSCVASGFTFSSHGMHWVRQAPGKGLEWVAVIWYDGSNKNYADSVKGRFTISRDNSKNTLYLQMNSLRAEDTAVYYCARDPSVGYDGMDVWGQGTTVTVSS
VL: DIQMTQSPSSLSASVGDRVTITCRASQGIGNHLAWFQQKPGKAPKSLIYAASSLQSGVPSKFSGSRSGTDFSLTISSLQPEDFATYYCQQYSNYPVTFGPGTKVDIK
notes: Tested as hybridoma supernatant at normalized concentration
B2: 7E11 (antibody, V domains shown)
VH: QVQLVESGGGVVQPGRSLRLSCAASGFTFSSFGMHWVRQAPGKGLEWVAIIWHDGSNKYYADSVKGRFTISRDNSNNTLYLQMSSLRAEDTAVYYCARDLSMGGMDVWGQGTTVTVSS
VL: DIQMTQSPSSLSASVGDRVTIACRASQNIISYLNWYQQKPGKAPKFLIYTASSLQSGVPSRFSGSGSGTDFTLTISSLQPEDFAIYYCQQTYSTPLTFGGGTKVEIK
notes: as for B1
B3: 48B12 (antibody, V domains shown)
VH: EVQLLESGGGLVQPGGSLRLSCAASGFTFSSYAMNWVRQAPGKGLEWVSAISGRGGNTFYADSVKGRFTISRDNSKNTLYLQMNSLRAEDTAVYYCAKRETYNWNYEGFDYWGQGTLVTVSS
VL: SYELTQPPSVSVSPGQTARITCSGDALPKKYAYWYQQKSGQAPVLVIYEDSKRPSGIPERFSGSSSGTMATLTISGAQVEDEADYYCNSTDSSGNHVVFGGGTKLTVL
notes: as for B1
B4: 193E7 (antibody, V domains shown)
VH: QVQLQQWGAGLLKPSETLSLTCAVYGGSFSGYFWTWIRQPPGKGLEWIGEINHSGSTNYNPSLKSRVTISVDTSKNQFSLKLSSVTAADTAVYYCARDYGADYWGQGTLVAVSA
VL: DIQMTQSPSSLSASVGDRVTITCRASQGIRNDLGWYQQKPGKAPKRLIYSASSLQRGVPSRFSGSGSGTEFTLTISSLQPEDFATYYCLQHKRYPLTFGGGTKVEIK
notes: as for B1
B5: 7G4 (antibody, V domains shown)
VH: QVQLVESGGGVVQPGRSLRLSCAASGFTFNNYVMHWVRQAPGKGLEWVAVIWYDGSNKYYADSVKGRFTISRDNSKNTLYLQMTSLRAEDTAVYYCAREKYSSNWYDYGMDVWGQGTTVTVSS
VL: DIQMTQSPSSLSASVGDRVTITCRASQGIRNDLGWYQQRPGKAPKRLIYAASSLQSGVPSRFSGSGSGTEFTLTISSLQPEDSATYYCLHQYSYPRTFGQGTKVEIK
notes: as for B1
B6: 5E5 (antibody, V domains shown)
VH: QVQLVESGGGVVQPGRSLRLSCAASGFTFSNYVMHWVRQAPGKGLEWVAVIWYDGSNKYYADSVKGRFTISRDNSKNTLYLQMNSLRAEDTAVYYCTREVYSSGWYDYGMDVWGQGTTVTVSS
VL: DIQMTQSPSSLSASVGDRVTITCRASQGIRNDLGWYQQKPGKAPKRLIYAASSLQSGVPSRFSGSGSGTEFTLTISSLQPEDFATYYCLQHYSYPRTFGQGTKVEVK
notes: as for B1
B7: 22G5 (antibody, V domains shown)
VH: EVQLLESGGGLVQPGGSLRLSCAASGFTFSSYAMNWVRQAPGMGLEWVSVISRSGGYTYYADSVKGRFTISRDNSKNTLYLQMNSLRAEDTAVYYCASRLAVAGSEAFDIWGQGTLVTVSS
VL: DIQMTQSPSSLSASVGDRVTITCRASQNISSYLNWYQQKQGKAPKLLIYAASSLQNGVPSRFSGRGSGTDFTLTISSLQPEDFATYYCQQSYRTPLFTFGPGTKVDFK
notes: as for B1
B8: 25A4 (antibody, V domains shown)
VH: QVLLVQSGAEVKRPGASVKVSCKASGYTFTNYDINWVRQATGQGLEWMGWMYPNSGNTGYAQKFQGRVTMTRNTSISTAYMELSSLRSEDTAVYYCASSSGWYYFDYWGQGTLVTVSS
VL: DIVMTQFPDSLAVSLGERATIKCKSSQSVLYSSHNNNYLAWYQQKPGQPPKLLLYWASTRESGVPDRFSGSGSGTEFTLTISSLEAEDVAVYYCQQYYSTPPTFGQGTKVEIK
notes: as for B1
B9: 26C4 (antibody, V domains shown)
VH: QVQLVQSGAEVKKPGASVKVSCKASGYTFTNYDINWVRQASGQGLEWMGWMNPNSGNTGYAQRFQGRVTMTRNTSINTAYMELSSLRSEDTAVYYCASSSGWYYFDYWGQGTLVTVSS
VL: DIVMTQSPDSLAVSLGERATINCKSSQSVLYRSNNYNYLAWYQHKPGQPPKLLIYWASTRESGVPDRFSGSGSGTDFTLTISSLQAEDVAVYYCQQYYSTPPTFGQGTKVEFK
notes: as for B1
B10: 29H8 (antibody, V domains shown)
VH: QVQLVQSGAEVQKPGASVKVSCKASGYTFTNYDINWVRQATGQGLEWMGWMNPNSGNTGYAQRFQGRVTMTRNTSISAAYMELSSLRSEDTAVYYCASSSGWYYFDYWGQGTLVTVSS
VL: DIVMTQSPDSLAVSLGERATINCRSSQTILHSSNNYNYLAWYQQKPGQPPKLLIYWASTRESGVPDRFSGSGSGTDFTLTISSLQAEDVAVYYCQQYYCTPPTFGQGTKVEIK
notes: as for B1
B11: 218G4 (antibody, V domains shown)
VH: QVQLVESGGGVVQPGRSLRLSCAASGFTFSSYGLHWVRQAPGKGLEWVAVIWYDGSNKYYADSVKGRFTISRDNSKNTLYLQMNSLRVEDTAVYYCANWYYYYYGMDVWGQGTTVTVSS
VL: QSVLTQPPSVSAAPGQKVTISCSGSSSNIGNNYVSWYQQLPGTAPKLLLYDSNKRPSGIPARFSGSKSGTSATLGITGLQTGDEADYYCGTWDSSLNTVVFGGGTKLTVL
notes: as for B1
B12: 198D2 (antibody, V domains shown)
VH: QVQLVESGGGVVQPGRSLRLSCAASGFTFRSYGMHWVRQAPGKGLEWVAVIIYDGSYKYYADSVKGRFTISRDNSKNTLYLQMNSLRAEDTAVYYCARTYSGGMDVWGQGTTVTVSS
VL: QSVLTQPPSVSAAPGQKVTISCSGSSSNIGSNYVSWYQQLPGTAPKVLIYDNNKRPSGIPDRFSGSKSGTSATLGITGLQTGDEADYYCGTWDSRLNVGVFGGGTKLTVL
notes: as for B1
B13: 176H4 (antibody, V domains shown)
VH: QVQLVESGGGVVQPGRSLRLSCAASGFTFSSYGMHWVRQAPGKGLEWVAIIWYDGSYKYYADSVKGRFTISRDNSKNTLYLQMSSLRAEDTAVYYCARDAHDFWSGYFAYWGQGALVTVSS
VL: DIVMTQTPLSLSVTPGQPASISCKSSQSLLHGDGKTYLYWYLQKPGQPPQLLIYEVSNRFSGVPDRFSGSGSGTDFTLKISRVEAEDVGIYYCMQSIQIPWTFGQGTRVEIK
notes: as for B1
B14: 194C10 (antibody, V domains shown)
VH: QVQLQQWGAGLLKPSETLSLTCAVSGGSFRYYYWSWIRQPPGKGLEWFGEINHSGSTNYNPSLKSRVTISIDTSKNQFSLKLRSVTAADTAVYYCARDYGAFDIWGQGTMVTVSS
VL: EIVLTQSPGTLSLSPGERATLSCRASPSVNSGYLAWYQQKPGQTPRLLIFGASSRATGIPDRFSASGSGADFTLTISRLEPEDFAVYFCQQYESSPWTFGQGTKVEIK
notes: as for B1
B15: 202A3 (antibody, V domains shown)
VH: QVQLEQSGAEVKKPGASVKVSCKASGYTFTSYDINWVRQATGQGLEWLGWMNPKRGNTGYAQKFQGRVTMTRNTSISTAHMELSSLRSEDTAVYYCARGRYSREDYYYYYDMDVWGQGTTVTVSS
VL: DIQMSQSPSSLSASVGDRVTITCRASQGIRNDLGWYQQKPGKAPKRLICAASRLQSGVPSRFSGSGSGTEFTLTISSLQPEDFAIYYCLQHHDYPFTFGPGTKVDIK
notes: as for B1
B16: 6G7 (antibody, V domains shown)
VH: QVQLVESGGGVVQPGRSLRLSCAASGFTFSSYGMHWVRQTPGKGLEWVAIISYVGKNKYYADSVKGRFTISRDNSKNTLYLQMNSLRAEDTAVYYCARRGNSYGGYGMDVWGQGTTVTVSS
VL: DIQMTQSPSSRSASVGDRVTITCQASQDISNYLNWCQQKPGKALKLLIYDASTLETGVPSRFSGSGSGTDFTFTISSVQPEDIATYYCQQYDNVPITFGQGTRLEIK
notes: as for B1
B17: 75G3 (antibody, V domains shown)
VH: QVQLQQWGAGLLKPSETLSLTCAVYGGSLSGSYWSWIRQPPGKGLEWIGEINLSGSTNYNPSLKSRVTISVDTSKSQFSLTLRSVTAADTAVYYCARDYGGLDYWGQGTLVTVSS
VL: EIVLTQSPGTLSLSPGERATLSCRARQNVDSSYLAWYQQKPGQAPRLLIYGASSRATGIPDRFSGSGSGTDFTLTISRLEPEDFAVFYCQQYERSPWTFGQGTKVEIK
notes: as for B1
B18: 54E9 (antibody, V domains shown)
VH: QVQLVQSGAEVKKPGASVKVSCKASGYTFNSYGISWVRLAPGQGLEWMGWISAYNGNTKNAQKLQGRVTMTTDTSTSTAYMELRSLRSDDTAVYYCARHDFWSGYYKGMDVWGQGTTVTVSS
VL: not shown
notes: as for B1

The target of the assay is T1, Mouse ASGR-1 (mouse, UniProt P34927 1-284).
T1 construct: Expressed on HEK 293 cells or as membrane prep on beads; cDNA GenBank BC022106.1; also called muASGR-1; mASGR-1
T1 sequence: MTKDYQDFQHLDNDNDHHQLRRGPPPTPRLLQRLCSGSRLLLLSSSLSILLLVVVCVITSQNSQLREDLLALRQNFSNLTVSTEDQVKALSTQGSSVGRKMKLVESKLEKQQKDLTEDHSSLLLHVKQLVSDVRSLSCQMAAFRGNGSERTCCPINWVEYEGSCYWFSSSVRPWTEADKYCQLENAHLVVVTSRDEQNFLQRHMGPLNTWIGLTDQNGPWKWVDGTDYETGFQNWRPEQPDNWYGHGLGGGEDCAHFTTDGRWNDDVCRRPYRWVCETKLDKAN
In words: FACS on transfected HEK 293 cells or membrane preps on beads; binding = signal at least 2x irrelevant IgG. Here is the method: Human ASGR-1-specific, ligand competing antibody samples were tested for binding to ASGR-1 from other species (cynomologus monkey ASGR-1, mouse ASGR-1, rat ASGR-1, dog ASGR-1, and pig ASGR-1) as well as to human ASGR-2 in FACS binding assays at normalized antibody concentrations. For cell-based assays, HEK 293 cells expressing the appropriate antigen of interest were mixed with antibody sample or controls, incubated for 1 hour at 4° C., and then washed twice. Cells with bound antibody were then incubated with Alexa Fluor® 647 IgG Fc fragment-specific detection antibody and 7-AAD viability stain for 15 minutes at 4° C., washed once and resuspended in FACS buffer. Samples were analyzed using a BD Accuri™ Flow Cytometer and an Intellicyt HyperCyt Autosampler. As a negative control, supernatants and controls were also screened against HEK 293 cells transfected with empty parental vector. […] For membrane-prep binding assays, ASGR-1 species specific membrane preps were used to coat LumAvidin® microspheres (beads) and tested for binding to selected hybridoma supernatants or controls. Briefly, ASGR-1 species specific membrane preps were incubated with streptavidin-coated LumAvidin® beads for 45 minutes in the dark at room temperature and washed twice. Beads were resuspeneded in FACS buffer containing Stabilguard®. Antigen-bound beads were then incubated with normalized antibody sample for 1 hour in the dark at room temperature, washed twice, incubated with Alexa Fluor® 488 IgG Fc fragment-specific detection antibody for 15 minutes in the dark at room temperature, washed once and finally resuspended in FACS buffer. Samples were analyzed using an Intellicyt iQue™ Screener Platform. FACS buffer supplemented with 1 mM Calcium Chloride was used in all steps. As a negative control, supernatants and controls were also screened against a non-ASGR-1 antigen membrane prep coated on the LumAvidin® beads.
As for B1, the binding result is given as “no binding”.
Next, B2: “no binding”.
Next, B3: “no binding”; B4: “no binding”; B5: “no binding”.
Next, B6: “no binding”.
With B7, the binding result is “no binding”.
To B8 belongs “no binding”; to B9, “no binding”.
Next, B10: “no binding”.
For the molecule B11, the binding result is on record as “no binding”.
Next, B12: “no binding”; B13: “no binding”.
Next, B14: “no binding”.
Turning to B15, the binding result is listed as “no binding”.
Next, B16: “no binding”; B17: “no binding”; B18: “no binding”.
